Reference: patent US20250188176A1 (INVETX, published 2025)
Several values for one entry are separate records, joined by “and”; a condition that tells them apart may be missing. Identical values can stand only once.

Legend:
[1] = biological target: T1, Extracellular domain (ECD) of the canine IL-4 receptor alpha-AviTag-His Tag (canine); assay: SPR, IgG captured via anti-dog H+L
T1 construct: expressed in CHO cells; also called canine IL-4RA; canine IL4Ra
T1 chain: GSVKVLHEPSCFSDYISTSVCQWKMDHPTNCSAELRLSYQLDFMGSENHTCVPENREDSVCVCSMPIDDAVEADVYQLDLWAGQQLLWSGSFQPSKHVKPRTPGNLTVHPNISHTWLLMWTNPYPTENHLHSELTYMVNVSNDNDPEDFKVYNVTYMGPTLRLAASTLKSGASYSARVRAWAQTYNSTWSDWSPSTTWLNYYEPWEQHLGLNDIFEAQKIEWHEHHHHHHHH

[2] = biological target: T2, Extracellular domain (ECD) of the canine IL-4 receptor alpha-V5 epitope-AviTag-His Tag (canine); assay: SPR, Fab-SASA captured on BSA;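 note: biacore T200 SPR, Fab-SASA variants from E. coli conditioned medium captured on BSA-coated CM5 chip, canine IL-4RA injected 120 s then 420 s dissociation, 1:1 model fit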
T2 construct: monomeric form isolated by size exclusion; also called canine IL-4RA-V5-Avi-His; canine IL-4RA
T2 chain: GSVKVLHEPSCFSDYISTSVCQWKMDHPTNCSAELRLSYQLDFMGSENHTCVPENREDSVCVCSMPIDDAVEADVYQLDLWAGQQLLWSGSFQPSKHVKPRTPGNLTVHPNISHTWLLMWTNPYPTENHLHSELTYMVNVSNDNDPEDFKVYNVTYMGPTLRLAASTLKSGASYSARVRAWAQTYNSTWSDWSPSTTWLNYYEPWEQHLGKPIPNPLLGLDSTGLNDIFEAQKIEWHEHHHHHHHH

[3] = biological target: canine IL-4RA (construct not given) (canine); assay: SPR, combinatorial Fab-SASA clone
[4] = biological target: canine IL-4RA on canine DH82 cells (canine); assay: cell-based or functional assay
[5] = biological target: canine IL-4RA on canine DH82 cells (canine); assay: cell-based or functional assay; remark: listed apart in the source
[6] = biological target: T1, Extracellular domain (ECD) of the …; assay: SPR, IgG captured via anti-dog Fc;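 note: biacore T200 SPR with antibodies captured on CM5 chip bearing anti-dog Fc, 120 s association then 600 s dissociation, double-referenced sensorgrams fitted with 1:1 binding model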

B1: TB640_275 (antibody, V domains shown)
VH: EVQLVESGGDLVKPGGSLRLSCVASGFTFRDYAMDWVRQAPGKGLQWLSLISGSGGKTYYADAVKGRFTISRDNAKNTLYLQMNSLRAEDTAVYYCAVDRLTKTIRPQYYGLWVWGQGTLVTVSS
VL: DIVMTQTPLSLSVSPGETASISCRSSQSLLYSIGYNYLDWYMQKPGQSPQGLIYLGSKRASGVSDRFSGSGSGADFTLKISRVEADDAGVYYCMQGLQSPLTFGQGTKLEIKR
notes: also called TB640_275-H + TB640_275-L
Q: What does the source list for B1?
A: Kd [1]: 1.71 nM; koff [1]: 0.000487 s⁻¹; kon [1]: 287000 M⁻¹ s⁻¹

B2: TB640_005 Fab-SASA wild type (Fab, V domains shown)
VH: EVQLVESGGDLVKPGGSLRLSCVASGFTFRDYAMTWVRQAPGKGLQWVSLISGSGGKTYYADAVKGRFTISRDNAKNTLYLQMNSLRAEDTAVYYCAVDRLTKTIRPQYYGLWVWGQGTLVTVSS
VL: DIVMTQTPLSLSVSPGETASISCRSSQSLLYSIGYNYLDWYLQKPGQSPQGLIYLGSKRASGVPDRFSGSGSGTDFTLRISRVEANDTGVYYCMQGLQSPLTFGQGTKLEIKR
notes: secreted from E. coli, tested in conditioned medium; also called WT; not shown: SASA tag then His-tag
Q: What does the source list for B2?
A: Kd [2]: 13 nM and 13.3 nM and 13.2 nM; Ratio WT-kd/clone-kd [2]: 1; koff [2]: 0.000952 s⁻¹ and 0.000953 s⁻¹; kon [2]: 73100 M⁻¹ s⁻¹ and 71700 M⁻¹ s⁻¹ and 72400 M⁻¹ s⁻¹; Kd [3]: 6.07 nM; koff [3]: 0.00116 s⁻¹; kon [3]: 191000 M⁻¹ s⁻¹

B3: GFmix_PTH-H + GFmix_THS-L (antibody, V domains shown)
VH: EVQLVESGGDLVKPGGSLRLSCVASGFPFRDYAMTWVRQAPGKGLQWLSLISGSGGKTYYADAVKGRFTISRDNAKNTLYLQMNSLRAEDTAVYYCAVDRLTKTIRPQYYGLWHWGQGTLVTVSS
VL: DIVMTQTPLSLSVSPGETASISCRSSQSLTYSIGYNYLDWYMQKPGQSPQGLIYLGSKRASGVSDRFSGSGSGADFTLKISRVEADDAGVYYCMQGLHSPLGFGQGTKLEIKR
Q: What does the source list for B3?
A: IC50: % inhibition of STAT6 phosphorylation (AlphaLISA pSTAT6) in canine DH82 cells stimulated with 20 ng/mL canine IL-4 [4]: 1.03 nM; IC50: % inhibition of STAT6 phosphorylation (AlphaLISA pSTAT6) in canine DH82 cells stimulated with 50 ng/mL canine IL-13 [5]: 0.21 nM; Kd [6]: 0.171 nM; koff [6]: 7.78e-05 s⁻¹; kon [6]: 458000 M⁻¹ s⁻¹
